Changes are numbered by the printed parent chain.
How the values were obtained:
[1] = biological target: T1, wild type bovine endothelial nitric oxide synthase (eNOS) (UniProt P29473)
T1 sequence: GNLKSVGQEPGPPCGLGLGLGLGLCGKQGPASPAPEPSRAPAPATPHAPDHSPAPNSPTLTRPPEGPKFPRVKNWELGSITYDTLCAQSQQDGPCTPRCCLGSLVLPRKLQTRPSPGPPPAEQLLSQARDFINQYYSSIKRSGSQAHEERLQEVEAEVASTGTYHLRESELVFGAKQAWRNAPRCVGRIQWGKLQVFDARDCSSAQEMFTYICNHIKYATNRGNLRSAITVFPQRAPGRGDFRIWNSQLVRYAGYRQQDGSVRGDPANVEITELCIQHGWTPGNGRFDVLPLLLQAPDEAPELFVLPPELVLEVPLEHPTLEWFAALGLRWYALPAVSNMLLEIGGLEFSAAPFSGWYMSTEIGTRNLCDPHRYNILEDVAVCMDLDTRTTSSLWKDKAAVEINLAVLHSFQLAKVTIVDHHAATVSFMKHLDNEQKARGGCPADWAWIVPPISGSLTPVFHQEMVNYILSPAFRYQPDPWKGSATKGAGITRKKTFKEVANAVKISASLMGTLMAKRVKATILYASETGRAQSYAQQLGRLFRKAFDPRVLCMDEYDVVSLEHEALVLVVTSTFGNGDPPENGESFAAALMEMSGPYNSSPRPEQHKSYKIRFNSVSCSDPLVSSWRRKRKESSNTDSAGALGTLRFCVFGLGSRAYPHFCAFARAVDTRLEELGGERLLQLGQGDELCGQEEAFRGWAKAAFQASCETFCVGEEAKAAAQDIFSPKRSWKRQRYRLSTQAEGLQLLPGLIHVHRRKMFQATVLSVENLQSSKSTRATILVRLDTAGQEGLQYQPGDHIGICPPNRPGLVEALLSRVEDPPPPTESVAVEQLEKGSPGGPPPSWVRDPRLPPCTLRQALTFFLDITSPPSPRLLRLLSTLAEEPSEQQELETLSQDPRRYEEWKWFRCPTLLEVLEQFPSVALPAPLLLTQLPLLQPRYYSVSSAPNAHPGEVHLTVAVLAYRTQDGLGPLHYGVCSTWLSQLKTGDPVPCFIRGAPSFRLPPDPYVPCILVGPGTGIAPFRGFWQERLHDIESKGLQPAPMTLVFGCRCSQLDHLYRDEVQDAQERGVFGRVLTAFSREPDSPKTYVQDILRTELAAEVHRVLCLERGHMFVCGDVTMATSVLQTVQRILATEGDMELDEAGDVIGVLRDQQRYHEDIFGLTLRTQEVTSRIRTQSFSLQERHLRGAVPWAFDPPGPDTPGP

eNOS S1179A (bovine) = biological target: T2, eNOS S1179A (bovine) (UniProt P29473)
T2 sequence: T1 sequence with S1178A

[2] = tested on: mutant eNOS peptide, amino acids 1174-1194 with S1179 changed to an alanine
[3] = tested on: T3, wild-type eNOS peptide, amino acids 1174-1194
T3 sequence: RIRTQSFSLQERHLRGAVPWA

Substance | in vitro kinase reaction, incorporation of 32P into the substrate [1] | in vitro kinase reaction, incorporation of 32P into the substrate (histone 2B) | further results
HA-tagged kinase inactive Akt (K179M) | the inactive Akt did not significantly increase histone or eNOS phosphorylation | the inactive Akt did not significantly increase histone or eNOS phosphorylation | 
HA-tagged wild-type Akt (protein kinase B) | 115.4±3.8 pmol of ATP/nmol substrate | 69.3±2.9 ... pmol of ATP/nmol substrate | 
constitutively active form of Akt (myr-Akt) |  |  | basal production of NO from adenovirus infected BLMVEC [1]: myr-Akt stimulates the basal production of NO from BLMVEC
recombinant Akt purified from baculovirus infected SF9 cells |  |  | in vitro kinase reaction with recombinant Akt, incorporation of 32P into eNOS (eNOS S1179A (bovine)): mutation of S1179 to A markedly reduces Akt-dependent phosphorylation of eNOS compared to the wild-type protein; in vitro kinase reaction, phosphate incorporated into the peptide (Cerenkov counting) [2]: the alanine mutant peptide which incorporated 0.22±0.02 nmol phosphate/mg; in vitro kinase reaction, phosphate incorporated into the peptide (Cerenkov counting) [3]: wild-type peptide incorporated 24.6±3.7 nmol phosphate/mg

Source: patent US20040253685
